FireProtDB (doi:10.1002/pro.343)

B1: Multidrug resistance operon repressor, P52003 (parent)
chain: MNYPVNPDLMPALMAVFQHVRTRIQSELDCQRLDLTPPDVHVLKLIDEQRGLNLQDLGRQMCRDKALITRKIRELEGRNLVRRERNPSDQRSFQLFLTDEGLAIHQHAEAIMSRVHDELFAPLTPVEQATLVHLLDQCLAAQPLEDI

Variants of: B1
Conditions: Pseudomonas aeruginosa (strain ATCC 15692 / DSM 22644 / CIP 104116 / JCM 14847 / LMG 12228 / 1C / PRS 101 / PAO1); pH 7.2; Thermal; CD; Sodium phosphate 10 mM; structure 1LNW; whole UniProt chain shown

Variant | Tm
L13M | 47.8 °C

Same assay, conditions: Pseudomonas aeruginosa (strain ATCC 15692 / DSM 22644 / CIP 104116 / JCM 14847 / LMG 12228 / 1C / PRS 101 / PAO1); pH 7.2; 22 °C; GdnHCl; CD; Sodium phosphate 10 mM; transition: 3; structure 1LNW; whole UniProt chain shown

Variant | denaturant midpoint (higher = more stable)
R21W | 2.6 M
